Data taken from US20170114104A1.

Key:
[1] = molecular target: Biotinylated green fluorescent protein (biotin-GFP); experiment: native-PAGE, dissociation under excess biotin, 23 °C, 10 h
[2] = molecular target: Biotinylated green fluorescent protein (biotin-GFP); experiment: native-PAGE, dissociation under excess biotin, 45 °C, 10 h
[3] = molecular target: Biotinylated green fluorescent protein (biotin-GFP); experiment: native-PAGE, dissociation under excess biotin, 37 °C, 10 h

percent of biotin conjugate dissociated after 10 h [1]: 6.8% | percent of biotin conjugate dissociated after 10 h [2]: 32% | percent of biotin conjugate dissociated after 10 h [3]: 16%
Substance: Neutravidin (NA) (from UniProt P02701 25-152)
